According to US6569419B2, “Methods for promoting production of myelin by Schwann cells” (ZymoGenetics, Inc., priority 2000, dated 2003):

What was measured:
[1] = tested on: primary Schwann cells; assay: MBP induction in pure Schwann cell cultures (Western blot, densitometry); assay type: cell-based, rat; settings: for Mean MBP induction (as percent of progesterone induction): mean ± SD; for MBP accumulation (in words): in the absence of progesterone pretreatment
Description: Primary Schwann cell cultures and dorsal root ganglia (DRG)-Schwann cell co-cultures were established. Rat primary Schwann cells were isolated as described by Einheber et al., J. Cell Biol. 123:1223-1236 (1994). Schwann cells were grown in 100 mm poly-L-lysine coated plates in Dulbecco's modified Eagles medium (DMEM) supplemented with 10% fetal bovine serum (FBS), pituitary extract (1 mg/ml) and 10 μM forskolin; up to 80-90% confluency.
The effect of Zcyto7 was tested in pure Schwann cell culture and in a co-culture of DRG and Schwann cells. Primary Schwann cells were grown to 80-90% confluency in 100 mm plates as described above. 12 h before treatment media was changed to 10 ml of N2 (defined medium) with or without 1 μM progesterone. The Zcyto7 solutions were added as 1.1 ml of 10×solution in N2 media, and cells were incubated for 48 hours (h). Cells were washed once with Hanks balanced salt solution (HBSS). The cell suspension was frozen on dry ice, thawed, pelleted and resuspended in 100 μl of lysis buffer, 125 mM tris (hydroxymethyl) aminomethane HCl (Tris HCl) pH7.0, 15% sucrose, 4% sodium dodecyl sulfate (SDS), 10 mM ethylenediaminetetraacetic acid (EDTA). Lysates were boiled for 5 minutes (min) on a water bath and cooled on ice. The protein concentration was determined using 4 μl in a BioRad BCA assay. Each sample was then supplemented with dithiothreitol (DTT) to a final concentration of 10 mM phenylmethylsulfonyl fluoride (PMSF)—to 2 mM, pepstatin and leupeptin—to 10 μg/ml.
60 μg of protein from each sample were separated on 4-12% Tris-Glycin NOVEX gels at 125 V constant for 1.5 h. Each gel contained vehicle control, vehicle supplemented with progesterone control, and randomly chosen samples from treatment groups. Transfer to poly (vinylidine difluoride) (PVFD) membrane was carried out according to the NOVEX electrotransfer protocol, at 25 V, for 40 min. Membranes were rinsed with tris buffered saline (TBS) for 3 min, and blocked with TBS/0.1% TWEEN-20/2% BSA for 1 h. Membranes were then incubated with 1:1000 dilution of anti-MBP mouse monoclonal IgG (Boehringer, Mannheim) in TBS/0.1% TWEEN-20, 0.5% BSA overnight, at 4° C. After washing 4 times for 30 min with TBS/0.1% TWEEN-20, membranes were incubated with anti-mouse horseradish peroxidase conjugate (1:20,000 dilution in TBS/0.1% TWEEN-20, incubated with SUPERSIGNAL chemiluminescent HRP substrate (Pierce Chemical Co., Rockford, Ill.) and exposed to Kodak X-Ray film for 15-20 min.
Density of myelin basic protein (MBP) bands was measured on LYNX Densitometer (Applied imaging) with ILLUMA System and expressed as percent progesterone-induced control MBP.
In experiment 1, the effect of the 4 different solutions of Zcyto7 on MBP accumulation was evaluated in pure Schwann cell cultures, with and without progesterone pretreatment. Solution A275F was evaluated in experiment 1 at 1 ng/ml, 10 ng/ml, 100 ng/ml and 1 μg/ml.
Four controls were included in each experiment: test vehicle alone, vehicle supplemented with progesterone, vehicle supplemented with IL-17, and vehicle supplemented with progesterone and IL-17 [See J. Immunol, 150:5445-5456 (1993)]. Three replicates were set up per each condition.

[2] = tested on: DRG-Schwann cell co-cultures; assay: Production of myelin (MBP immunofluorescence signal density) in DRG-Schwann cell co-cultures; assay type: cell-based, rat; settings: DRG-Schwann cell co-culture, 3.5 weeks
Description: Dissociated neuronal cultures from normal rats were established as described by Kleitman et al., Tissue culture methods for the study of myelination, in Culturing Nerve Cells, Banker and Goslin, Eds, pp. 338-378(MIT Press, Cambridge, Mass., 1992). Briefly, DRG were dissected out from the rats, treated with 0.25% trypsin, mechanically dissociated, washed, and resuspended in L15 medium with 10% fetal calf serum. The neurons were plated onto 12-mm glass coverslips coated with ammoniated rat tail collagen (Biomedical Technologies, Inc.) for microscopic evaluation. Starting one day following the dissection, cultures were treated over a 2-week period with three cycles of 5-fluorodeoxyuridine and uridine (both at 10 μM) in standard medium to assure a pure neuronal population. Standard medium consisted of minimum essential medium (MEM) supplemented with 10% FBS, 2 mM glutamine, 0.4% glucose, and 50 ng/m β-nerve growth factor (β-NGB).
Myelinating co-cultures were established by seeding the purified neurons with rat primary Schwann cells as described Einheber, et al., id.
After establishing the myelinating co-cultures, Schwann cells were allowed to proliferate for one week attached to the neurons. The medium was then changed to 15% and 50 μg/ml ascorbate was added to promote basal lamina formation and to initiate myelination. The effect of the Zcyto7 was evaluated for 3.5 weeks in the presence of ascorbate, with the medium changed every two days. Cultures were then fixed in 3.7% formaldehyde for 10 minutes and made permeable in 100% methanol for 15 minutes at −20° C. Following with PBS having 3% BSA, the samples were incubated with mouse anti-MBP antibody (Boehringer-Mannheim) overnight, washed and incubated with Cy3-labeled anti-mouse IgG. Samples were washed, mounted in VECTASHIELD and examined by epifluorescence with a Zeiss AXIOSKOP microscope.
Myelin production was quantitatively and qualitatively evaluated, and myelin density was determined for each of the five replicates per condition. Six representative regions in each sample were captured using a low-level light COHUE digital camera, and the density of fluorescent signal determined using the National Institutes of Health (NIH) Scion Image. The mean and standard deviation of myelin density was calculated for each group and converted to a percentage by dividing by the density seen in the appropriate control culture. Morphometric measurements were carried out using double blind analysis.
Solution A258F was chosen on the basis of the results of experiment 1 was evaluated in experiment 2 for myelin formation in DRG-Schwann co-cultures. […]

[3] = 1 ng/ml, without progesterone, pure Schwann cells, 48 h
[4] = 10 ng/ml, without progesterone, pure Schwann cells, 48 h
[5] = 100 ng/ml, without progesterone, pure Schwann cells, 48 h
[6] = 1 μg/ml, without progesterone, pure Schwann cells, 48 h
[7] = Prog + 1 ng/ml, pure Schwann cells, 48 h
[8] = Prog + 10 ng/ml, pure Schwann cells, 48 h
[9] = Prog + 100 ng/ml, pure Schwann cells, 48 h
[10] = Prog + 1 μg/ml, pure Schwann cells, 48 h

| Molecule | Mean MBP induction (as percent of progesterone induction) ([1]; Prog + IL-17 control, in column A258 F) | Mean MBP induction (as percent of progesterone induction) ([1]; Prog + IL-17 control, in column A275 F) | Mean MBP induction (as percent of progesterone induction) ([1]; Prog + IL-17 control, in column A311 F) | MBP Signal Density (mean ± SD) ([2]; Ascorbic acid (AA) + 10 ng/ml) | Mean MBP induction (as percent of progesterone induction) [1, 3] | Mean MBP induction (as percent of progesterone induction) [1, 4] | MBP accumulation (in words) ([1]; 100 ng/ml) | Mean MBP induction (as percent of progesterone induction) [1, 5] | Mean MBP induction (as percent of progesterone induction) [1, 6] | Mean MBP induction (as percent of progesterone induction) [1, 7] | Mean MBP induction (as percent of progesterone induction) [1, 8] | Mean MBP induction (as percent of progesterone induction) [1, 9] | Mean MBP induction (as percent of progesterone induction) [1, 10] | Concentration of maximal effect on MBP accumulation ([1]; pure Schwann cell cultures) [ng/mL] | MBP induction (in words) ([1]; pure Schwann cell cultures) | MBP Signal Density (mean ± SD) ([2]; Ascorbic acid (AA) + 1 ng/ml) | MBP Signal Density (mean ± SD) ([2]; Ascorbic acid (AA) + 100 ng/ml) |
| --- | --- | --- | --- | --- | --- | --- | --- | --- | --- | --- | --- | --- | --- | --- | --- | --- | --- |
| IL-17: Interleukin-17; solution at 50 μg/ml of PBS, pH 7.0; control in the experiments | 199.30 ± 23.21% of progesterone induction | 214.50 ± 103.80% of progesterone induction | 180.60 ± 123.80% of progesterone induction | 11.65 ± 0.78 |  |  |  |  |  |  |  |  |  |  |  |  |  |
| A258 F: Solution of human Zcyto7 expressed in BHK cells, 0.603 mg/ml of PBS at pH 6.0 (protein, UniProt Q9UHF5 21-180, looked up) Interleukin-17B: QPRSPKSKRKGQGRPGPLAPGPHQVPLDLVSRMKPYARMEEYERNIEEMVAQLRNSSELAQRKCEVNLQLWMSNKRSLSPWGYSINHDPSRIPVDLPEARCLCLGCVNPFTMQEDRSMVSVPVFSQVPVRRRLCPPPPRTGPCRQRAVMETIAVGCTCIF |  |  |  | 47.74 ± 23.60 | 81.47 ± 7.75% of progesterone induction | 41.59 ± 32.29% of progesterone induction | significantly induced MBP accumulation | 117.00 ± 42.89% of progesterone induction | 152.80 ± 27.95% of progesterone induction | 117.00 ± 15.83% of progesterone induction | 187.20 ± 18.43% of progesterone induction | 265.90 ± 32.09% of progesterone induction | 174.30 ± 25.59% of progesterone induction | 100 | induced MBP accumulation in dose-dependent manner | 20.04 ± 8.55 | 74.74 ± 19.22 |
| A258 G: Solution of human Zcyto7 expressed in BHK cells, 0.089 mg/ml of PBS+0.1% BSA at pH 6.0 (protein, UniProt Q9UHF5 21-180, looked up) Interleukin-17B: QPRSPKSKRKGQGRPGPLAPGPHQVPLDLVSRMKPYARMEEYERNIEEMVAQLRNSSELAQRKCEVNLQLWMSNKRSLSPWGYSINHDPSRIPVDLPEARCLCLGCVNPFTMQEDRSMVSVPVFSQVPVRRRLCPPPPRTGPCRQRAVMETIAVGCTCIF |  |  |  |  |  |  | significantly induced MBP accumulation | 210 ± 115.20% of progesterone induction |  |  |  | 152 ± 19.38% of progesterone induction |  |  |  |  |  |
| A275 F: Solution of murine Zcyto7 expressed in BHK cells, 1 mg/ml of PBS at pH 6.0 (protein, UniProt Q9QXT6 23-180, looked up) Interleukin-17B: RNTKGKRKGQGRPSPLAPGPHQVPLDLVSRVKPYARMEEYERNLGEMVAQLRNSSEPAKKKCEVNLQLWLSNKRSLSPWGYSINHDPSRIPADLPEARCLCLGCVNPFTMQEDRSMVSVPVFSQVPVRRRLCPQPPRPGPCRQRVVMETIAVGCTCIF |  |  |  |  | 102.40 ± 21.33% of progesterone induction | 123.40 ± 50.34% of progesterone induction | significantly induced MBP accumulation | 210.60 ± 9708% of progesterone induction | 170.90 ± 49.63% of progesterone induction | 48.77 ± 45.44% of progesterone induction | 121.00 ± 78.16% of progesterone induction | 278.00 ± 95.43% of progesterone induction | 280.80 ± 62.95% of progesterone induction |  |  |  |  |
